From patent US12534533B2, “Anti-chemokine like receptor 1 humanized antibodies and their therapeutic applications” (OSE IMMUNOTHERAPEUTICS, priority 2019, dated 2026)

How the values were obtained:
[1] = tested on: PMN from healthy volunteers or ANCA patients; assay: Neutrophils transmigration through endothelial monolayer (HDMEC transwell); assay type: cell-based, human
Procedure: Endothelial cells were coated and +/−activated with 100 U/mL of TNFa overnight. Then PMN were added with or without TNFa at 100 U/mL and Ab for two hours. The transmigrated PMN were collected and analyzed by flow cytometry.
Human endothelial cells (HDMEC) were incubated for 24 h in the transwell coated with gelatin and activated overnight with TNF-alpha at 100 U/mL or without inflammatory conditions. Then, PMN from healthy volunteers or ANCA patients were incubated in transwell containing the monolayer of HDMEC for 4 hours. Antibodies (Iso Ctrl and 2G1) were added at 10 μg/mL+/−TNF-alpha at 100 U/mL during the 4 hours of the transmigration assay. The lower transmigrated part of the transwell was collected and the transmigrated PMN were counted by flow cytometry using counting beads.

[2] = tested on: spontaneous colitis in IL-10KO mice; assay: IL10 KO spontaneous chronic inflammatory colitis model; assay type: in vivo; details: vs isotype control
Procedure: FIG. 4. Effect of an anti-CMKLR1 antibody on a IL10 KO mice chronic inflammatory colitis model. Mice KO for IL10 develop a spontaneous inflammatory colitis. They were treated with an Anti-CMKLR1 antibody (2G1) (□) or isotype control (hIgG1) (x) intra-peritoneally (25 μg/injection, 3 times a week). A. Animal weight loss during and after treatment. B. Animal score stool.
IL-10KO mice develop a spontaneous colitis from 20 weeks of age mostly due to the absence of regulatory T cells function through IL-10 secretion in the intestine. IL-10KO mice were followed-up three times a week from 18-week old for their weight loss and stool consistency which are clinical hallmarks of this pathology.

[3] = tested on: spontaneous type 1 diabetes in NOD mice; assay: type 1 diabetes NOD model; assay type: in vivo; details: 20 μg/injection i.p. three times a week for 2 weeks
Excerpt: FIG. 5. Effect of an anti-CMKLR1 antibody on a mice type1 non-obese diabetes model. Mice develop spontaneous diabetes. […] A. Percentage of survival, B. individual representation of blood glucose concentration in mg/dL. C. pooled representation of blood glucose concentration in mg/dL.
8 weeks-old NOD female mice were obtained from Charles River laboratory. These mice develop a spontaneous type 1 diabetes at age between 12 to 20 weeks. The diabetes initiation can be measured by the high glycaemia.

[4] = tested on: Mice dendritic cells; assay: DCs maturation and differentiation, activation markers by FACS; assay type: cell-based
Procedure: FIG. 1. Effect of the anti-CMKLR1 variants 1G1, 2G1, 3G1 and 4G1 chimeric antibodies on the DCs maturation and differentiation. Mice dendritic cells were incubated during maturation phase (24 h or 48 h) followed by a differentiation phase with excipient or RvE1 or anti-CMKLR1 antibodies variants (mutations on positions 1 and 2 of SEQ ID No. 8, corresponding to the VH-CDR3: 1G1 (LL), 2G1 (LI), 3G1 (IL) or 4G1 (II) or isotype controls (hIgG1 or mIgG)). Cells were then stained for FACS analysis with cell marker antibodies: A. CD80-PE; B. CD86-FITC; C. CD103-PerCPCy5.5; D. I/Ab-APC. Mean of Fluorescence was determined in each condition. E and F represent the viability of the cells measured by FACS using LIVE/DEAD® kit from Life Technologies in each condition after 24 or 48 hours of maturation respectively.
FIG. 16. Study of the myeloid cell activation markers after CMKLR1 pathway activation. Dendritic cells incubated in excipient, RvE1, 2G1 or isotype control (hIgG1) were then stained for FACS analysis with marker antibodies: A. CD80-PE. B. CD86-FITC. C. CD103-PerCPCy5.5. D. CD40-PeCy7. E. I/Ab-APC. Mean of Fluorescence was determined in each condition.
Bone marrow cells were harvested and cultured in RPMI medium supplemented with 10% FBS, glutamine and antibiotics and the dendritic cell differentiation was induced by GM-CSF at 20 ng/ml for 7 days. Then, immature dendritic cells (iDC) were collected and cultured for 24 hours with LPS (100 ng/ml) to induce the maturation from iDC to mDC. Treatments were added during differentiation and maturation at 2 μg/ml.
Dendritic cells were resuspended in PBS-FBS-EDTA and incubated with live and dead (LIVE/DEAD® Fixable Dead Cell Stains Yellow-Life Technologies) for 30 minutes on ice. Staining of CD11c-BV711, CD11b-APCCy7, I/Ab-APC, CD103-PerCPCy5.5, CCR7-V450, CD40-PeCy7, CD80-PE, CD86-FITC (all provided by BD Pharmingen) were performed.

[5] = tested on: MC38 CRC cell line; assay: CRC model, tumor cell inoculated (MC38 subcutaneously); assay type: in vivo, mice; details: FIG. 31A
Procedure: Tumor inoculation was performed with 0.5M of MC38 CRC cell line subcutaneously. Mice were injected three times a week with 1 mg/kg of 2G1 or Ctrl Ab for 3 weeks starting at d4 after tumor induction. Cyclophosphamide was injected I.P. once at 100 mg/kg. Tumor development was assessed three times a week and survival curves were established when mice developed a tumor >1000 mm3.

[6] = tested on: peritonitis induced by Zymosan A; assay: peritonitis model (Zymosan A); assay type: in vivo, mice; details: vs isotype control
Procedure: FIG. 7. Effect of an anti-CMKLR1 antibody on a mice peritonitis model. Preventive injection of anti-CMKLR1 was performed before Zymosan A injection (1 mg per mouse in 1 mL): RvE1 (1 μg per mouse) (●), 2G1 antibody (10 μg per mouse) (□) or isotype control antibody (x). A. PMN numbered during the first 50 hours after Zymosan A injection. B. Macrophages numbered during the first 50 hours after Zymosan A injection. C. Resolution index.
Common peritonitis is induced by intraperitoneal injection of Zymosan A® (1 mg per mouse in 1 mL). Preventive injection of anti-CMKLR1 was performed 5 minutes before Zymosan A injection: RvE1 (1 μg per mouse), 2G1 antibody (10 μg per mouse). Murine peritoneal polymorphonuclear neutrophil (PMN) and macrophages were collected at 2-4-8-16-24 and 48 h after Zymosan A injection and numbered by flow cytometry analysis to determinate the resolution index (Bannenberg et al., 2005).

B1: 2G1: parental chimeric anti-CMKLR1 antibody: heavy chain variable domain SEQ ID No. 37, light chain variable domain SEQ ID No. 49 (antibody, V domains shown)
VH: EVQLVASGGGLVQPGGSLKLSCAASGFTFSSYGMSWVRQTPDRRLELVATINRYGGSTYYPDSVKGRFTISRDNAKNTLYLQMSSLKSEDTAMYYCPRLIYYGNEGDSWGQGTTLTVSS
VL: QIVLTQSPAIMSASPGEKVTMTCSASSSVSFMHWYQQKSGTSPKRWIYDTTKLTSGVPARFSGSGSGTFYSLTISSMEAEDAATYYCQQWNSKPPLTFGPGTKLELKR
In the case of B1, the “transmigration capability of neutrophils” value ([1]; 10 μg/mL, compared to control compounds, FIG. 28A) is reported as “lower transmigration capability”, the “PMN transmigration through endothelial monolayer under inflammatory condition” value ([1]; PMN and endothelial cells activated with TNFa, healthy volunteers and patients, FIG. 28B) is reported as “avoids PMN transmigration” and the “percentage of weight loss” value ([2]; 25 μg/injection i.p., 3 times a week for 2 weeks, FIG. 4A) is reported as “lost less weight”. The score stool ([2]; FIG. 4B) was “better score stool”, the Percentage of survival ([3]; FIG. 5A) was “better survival percentage” and the “glycaemia (blood glucose concentration)” value ([3]; FIG. 5B-C) was “almost normal glycaemia”. For the same molecule, the viability of cells ([4]; LIVE/DEAD kit, after 24 or 48 hours of maturation, FIGS. 1E and 1F) was “enhanced”, the “expression of CD80, CD86, CD103, CD40 and IAb” value ([4]; compared to the excipient or isotype control, FIG. 16) was “strong decrease” and the “DCs activation and/or maturation (DCs expressing CD103 and IAb)” value ([4]; maturation 24 h or 48 h, FIG. 1) was “inhibit DCs activation and/or maturation in a stronger manner than other synthetized antibodies”. The tumor volume ([5]; 1 mg/kg three times a week for 3 weeks starting at d4, vs control antibody) was “reduced”, the remission ([5]; in several cases) was “complete remission” and the PMNs number ([6]; first 50 hours after Zymosan A, FIG. 7A) was “slightly less”. For the same molecule, the Macrophages number ([6]; first 50 hours after Zymosan A, FIG. 7B) was “slightly less” and the resolution index ([6]; FIG. 7C) was “better resolution index”.
